Source: patent publication US8367390B2, “Galactanase variants” (Novozymes A/S, priority 2002, dated 2013)

Experiments:
[1] = Degradation of MeGal4, products by HPAE-PAD; format: biochemical; settings: in words; buffer, pH and temperature per enzyme
Description: (§1) The activity on the galacto-oligosaccharide substrates prepared as described above and on the commercially available galactobiose (Gal2, Megazyme) was studied for the four purified galactanases HIGAL, MTGAL, AAGAL and BLGAL. The buffers and temperatures used were: 25 mM sodium acetate, 0.5 mM CaCl2, 0.005% Triton X-100, pH 6.5 at 37° C. for HIGAL and MTGAL, 50 mM sodium acetate, 1 mM CaCl2, pH 4 at 30° C. for AAGAL and 50 mM Mes, 1 mM CaCl2, pH 6.5 at 30° C. for BLGAL. Enzyme concentrations used were 0.8 μg/ml for HIGAL, 0.2 microgram/ml for MTGAL, and 10 micrograms/ml for AAGAL and BLGAL. With HIGAL and MTGAL substrate concentrations were all 0.25 mg/ml, whereas 0.34 mg/ml Gal2, 0.050 mg/ml Gal3 and 0.067 mg/ml Gal4 were used for AAGAL and BLGAL. Enzyme activity in samples withdrawn after various incubation times was inactivated by heating to 95° C. for 10 min. Compositions of reaction products were analysed using HPAE-PAD (Dionex) applying a PA-100 column and a linear gradient of sodium acetate (0-0.18 M) in 0.15 M NaOH. Response factors of the individual carbohydrates were estimated from reference runs with MeGal3, MeGal4, Gal, Gal2, Gal3 and Gal4. Selected results are shown in Tables 2-8 below (the figures indicating weight percentage of glactooligosaccharides).

[2] = format: biochemical
Description: as §1

[3] = Activity on galactan, products by HPAEC-PAD; format: biochemical; settings: 30° C.; BLGAL pH 6.5, AAGAL pH 4.0
Description: Lupin galactan (Megazyme) was incubated with BLGAL (0.1-10 micrograms/ml) at pH 6.5 (50 mM MES, 1 mM CaCl2) and with AAGAL (0.1-10 μg/ml) at pH 4.0 (50 mM sodium acetate, 1 mM CaCl2) at 30° C. Samples were withdrawn after 45 min to 24 hours and enzyme inactivated by heating to 95° C. for 10 min. Reaction products were analyzed using HPAEC-PAD on a Dionex chromatographic system using a CarboPac PA-100 column and a linear gradient 0 to 0.3 M sodium acetate in 0.15 M NaOH. Purified galacto-oligosaccharides were used to identify products.

[4] = Activity on galactobiose (Gal2); format: biochemical; settings: in 24 hours; buffer, pH and temperature per enzyme
Description: as §1

[5] = Activity on galactotriose (Gal3); format: biochemical; settings: up to 24 hours; buffer, pH and temperature per enzyme
Description: as §1

[6] = pH profile of galactanase activity on lupin AZCL-galactan; format: biochemical; settings: 15 min at 37° C., A590, unit assumed
Description: The pH profiles of the purified variants described above were established as follows: Galactanase activity at various pH was measured by mixing 500 μl 4 mg/ml lupin AZCL-galactan (Megazyme, Australia) in water with 500 μl buffer (50 mM sodium acetate, 50 mM potassium dihydrogenphosphate, 50 mM boric acid, 1 mM CaCl2, 0.01% Triton X-100 adjusted to pH 2.5, 3.5, 4.5, 5.5, 6.5, 7.5, 8.5 or 9.5 with HCl/NaOH) and 25 μl purified enzyme diluted to about 0.5-2 μg/ml in water. The mixture was incubated 15 min at 37° C., insoluble material was removed by centrifugation, and absorbance in the supernatant was measured at 590 nm.

| Molecule | Products from MeGal4 [1] | Products of Gal4 (galactotetraose) degradation [2] | Initial products from lupin galactan [3] | Activity on Gal2 [4] | Activity on Gal3, products [5] | Galactanase activity at pH 2.5 ([6]; pH 2.5) [%] | Galactanase activity at pH 3.5 ([6]; pH 3.5) [%] | Galactanase activity at pH 4.5 ([6]; pH 4.5) [%] | Galactanase activity at pH 5.5 ([6]; pH 5.5) [%] | Galactanase activity at pH 6.5 ([6]; pH 6.5) [%] | Galactanase activity at pH 7.5 ([6]; pH 7.5) [%] | Galactanase activity at pH 8.5 ([6]; pH 8.5) [%] | Galactanase activity at pH 9.5 ([6]; pH 9.5) [%] |
| --- | --- | --- | --- | --- | --- | --- | --- | --- | --- | --- | --- | --- | --- |
| BLGAL: GH Family 53 galactanase from Bacillus licheniformis, SEQ ID NO: 4 (wild type parent) (protein, listed as Bacillus licheniformis) AHRDSGTAKSGLYVEKVSGLRKDFIKGVDVSSIIALEESGVAFYNESGKKQDIFNTLKEAGVNYVRVRIWNDPYDANGNGYGGGNNDLEKAIQIGKRANANGMKLLADFHYSDFWADPAKQKAPKAWANLNFEDKKTALYQYTKQSLKAMKAAGIDIGMVQVGNETNGGLAGETDWAKMSQLFNAGSQAVRETDSNILVALHFTNPETSGRYAWIAETLHRHHVDYDVFASSYYPFWHGTLKNLTSVLTSVADTYGKKVMVAETSYTYTAEDGDGHGNTAPKNGQTLNNPVTVQGQANAVRDVIQAVSDVGEAGIGVFYWEPAWIPVGPAHRLEKNKALWETYGSGWATSYAAEYDPEDAGKWFGGSAVDNQALFDFKGRPLPSLHVFQYVDTGTPFKN | MeGal and Gal3 | degrades galactotetraose mainly to galactose and galactotriose | initial main product is galactotetraose with both smaller and larger oligomers also present | Neither of the enzymes HIGAL, MTGAL, AAGAL or BLGAL had any detectable activity | no visible activity on Gal3 after 24 hours |  |  |  |  |  |  |  |  |
| AAGAL: GH Family 53 galactanase from Aspergillus aculeatus, SEQ ID NO: 3 (wild type parent) (protein, listed as Aspergillus aculeatus, mat_peptide (1)..()) ALTYRGADISSLLLLEDEGYSYKNLNGQTQALETILADAGINSIRQRVWVNPSDGSYDLDYNLELAKRVKAAGMSLYLDLHLSDTWADPSDQTTPSGWSTTDLGTLKWQLYNYTLEVCNTFAENDIDIEIISIGNEIRAGLLWPLGETSSYSNIGALLHSGAWGVKDSNLATTPKIMIHLDDGWSWDQQNYFYETVLATGELLSTDFDYFGVSYYPFYSASATLASLKTSLANLQSTYDKPVVVVETNWPVSCPNPAYAFPSDLSSIPFSVAGQQEFLEKLAAVVEATTDGLGVYYWEPAWIGNAGLGSSCADNLMVDYTTDEVYESIETLGEL |  | about equimolar amounts of galactose, galactobiose and galactotriose | initially produces a more homogeneous mixture of galactooligomers | Neither of the enzymes HIGAL, MTGAL, AAGAL or BLGAL had any detectable activity | degraded Gal3 to Gal2 and Gal | 73 | 100 | 83 | 47 | 32 | 0 | 2 | 0 |
